Residue numbers refer to the chain shown, from its start. In names and notes the source's numbering stands. Values belong to the binder of their own block, whether it stands above or below them.
Columns and labels:
human Rad6 (hHR6B) = human Rad6 (hHR6B) (human, UniProt P63146 1-152); assay: SEC
ubiquitin = ubiquitin (UniProt P0CG48 1-76); assay: SPR

Chain of human Rad6 (hHR6B) (P63146 whole entry): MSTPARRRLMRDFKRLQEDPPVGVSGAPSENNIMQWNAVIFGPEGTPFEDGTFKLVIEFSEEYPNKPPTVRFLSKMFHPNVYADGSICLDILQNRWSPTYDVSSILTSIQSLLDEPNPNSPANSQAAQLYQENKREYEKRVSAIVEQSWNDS

- binding result (human Rad6 (hHR6B)): binds
B1: GST-fused Rad18 (1–99), Ring domain (domain or fragment)
chain: MDSLAESRWPPGLAVMKTIDDLLRCGICFEYFNIAMIIPQCSHNYCSLCIRKFLSYKTQCPTCCVTVTEPDLKNNRILDELVKSLNFARNHLLQFALES

- Kd (ubiquitin): 42.1 µM
B2: GST-ZnF (Rad18 zinc finger domain) (domain or fragment)
chain: TLKQVTKVDCPVCGVNIPESHINKHLDSCLSREEKKES

- Kd (ubiquitin): 192 µM
B3: GST-C207F ZnF (domain or fragment)
chain: B2 chain with C13F
